This is an account of results in article PMC4364042 (Science (New York, N.Y.), 2014).

By Kd is commonly meant the equilibrium constant for the complex coming apart.

Test [1] has as its target E-cadherin/β-catenin complex (Mus musculus) (UniProt P09803). Particulars: cited from earlier work.
The target of the next test is T1, Dr αE-catenin (Danio rerio (zebrafish), UniProt Q9PVF8 1-907).
T1 sequence (looked up): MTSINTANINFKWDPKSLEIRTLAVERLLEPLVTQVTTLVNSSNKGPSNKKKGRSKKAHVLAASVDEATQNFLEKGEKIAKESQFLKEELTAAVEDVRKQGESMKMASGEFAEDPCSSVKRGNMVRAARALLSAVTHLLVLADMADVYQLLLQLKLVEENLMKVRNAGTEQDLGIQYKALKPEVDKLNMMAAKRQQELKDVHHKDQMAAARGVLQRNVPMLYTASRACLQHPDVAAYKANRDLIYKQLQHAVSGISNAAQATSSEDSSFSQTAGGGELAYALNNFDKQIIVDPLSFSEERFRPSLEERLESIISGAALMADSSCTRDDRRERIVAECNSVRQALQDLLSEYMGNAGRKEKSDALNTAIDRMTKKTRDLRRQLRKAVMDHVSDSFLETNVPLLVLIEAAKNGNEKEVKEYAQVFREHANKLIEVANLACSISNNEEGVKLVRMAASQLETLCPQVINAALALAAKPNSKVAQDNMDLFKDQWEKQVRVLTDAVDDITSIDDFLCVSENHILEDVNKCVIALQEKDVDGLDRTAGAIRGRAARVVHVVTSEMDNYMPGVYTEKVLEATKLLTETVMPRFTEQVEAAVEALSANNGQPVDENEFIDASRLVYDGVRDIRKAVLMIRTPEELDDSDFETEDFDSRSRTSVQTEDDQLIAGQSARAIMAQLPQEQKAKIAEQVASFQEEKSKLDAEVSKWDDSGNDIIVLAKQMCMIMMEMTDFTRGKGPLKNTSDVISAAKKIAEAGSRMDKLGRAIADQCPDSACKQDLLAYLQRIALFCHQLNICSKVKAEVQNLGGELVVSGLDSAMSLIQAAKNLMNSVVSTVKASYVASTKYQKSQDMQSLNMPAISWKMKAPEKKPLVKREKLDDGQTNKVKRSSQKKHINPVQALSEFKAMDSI
Nature of the test: reconstitution of the complex on the coverslip, read by optical trap.

Chain of E-cadherin/β-catenin complex (Mus musculus) (P09803 157-884, chain 1 of 2): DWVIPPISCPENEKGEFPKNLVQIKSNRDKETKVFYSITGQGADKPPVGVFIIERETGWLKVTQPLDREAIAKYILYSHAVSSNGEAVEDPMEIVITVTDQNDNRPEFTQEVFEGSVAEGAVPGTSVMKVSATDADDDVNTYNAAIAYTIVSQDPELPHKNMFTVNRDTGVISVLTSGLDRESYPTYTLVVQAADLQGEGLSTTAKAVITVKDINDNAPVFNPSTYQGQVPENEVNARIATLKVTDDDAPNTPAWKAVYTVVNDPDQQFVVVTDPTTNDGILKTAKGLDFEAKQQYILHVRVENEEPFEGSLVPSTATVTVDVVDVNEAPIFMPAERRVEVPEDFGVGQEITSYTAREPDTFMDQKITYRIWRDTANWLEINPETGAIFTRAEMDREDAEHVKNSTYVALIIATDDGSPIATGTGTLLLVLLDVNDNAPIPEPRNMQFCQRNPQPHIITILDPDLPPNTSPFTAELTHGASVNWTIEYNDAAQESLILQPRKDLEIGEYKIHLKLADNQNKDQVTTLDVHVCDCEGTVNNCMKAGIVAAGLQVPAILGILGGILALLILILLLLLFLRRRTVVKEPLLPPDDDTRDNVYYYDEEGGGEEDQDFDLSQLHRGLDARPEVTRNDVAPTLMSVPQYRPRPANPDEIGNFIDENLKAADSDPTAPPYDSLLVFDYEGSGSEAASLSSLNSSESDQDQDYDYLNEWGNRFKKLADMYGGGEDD
Chain of E-cadherin/β-catenin complex (Mus musculus) (Q02248 2-781, chain 2 of 2, further chain): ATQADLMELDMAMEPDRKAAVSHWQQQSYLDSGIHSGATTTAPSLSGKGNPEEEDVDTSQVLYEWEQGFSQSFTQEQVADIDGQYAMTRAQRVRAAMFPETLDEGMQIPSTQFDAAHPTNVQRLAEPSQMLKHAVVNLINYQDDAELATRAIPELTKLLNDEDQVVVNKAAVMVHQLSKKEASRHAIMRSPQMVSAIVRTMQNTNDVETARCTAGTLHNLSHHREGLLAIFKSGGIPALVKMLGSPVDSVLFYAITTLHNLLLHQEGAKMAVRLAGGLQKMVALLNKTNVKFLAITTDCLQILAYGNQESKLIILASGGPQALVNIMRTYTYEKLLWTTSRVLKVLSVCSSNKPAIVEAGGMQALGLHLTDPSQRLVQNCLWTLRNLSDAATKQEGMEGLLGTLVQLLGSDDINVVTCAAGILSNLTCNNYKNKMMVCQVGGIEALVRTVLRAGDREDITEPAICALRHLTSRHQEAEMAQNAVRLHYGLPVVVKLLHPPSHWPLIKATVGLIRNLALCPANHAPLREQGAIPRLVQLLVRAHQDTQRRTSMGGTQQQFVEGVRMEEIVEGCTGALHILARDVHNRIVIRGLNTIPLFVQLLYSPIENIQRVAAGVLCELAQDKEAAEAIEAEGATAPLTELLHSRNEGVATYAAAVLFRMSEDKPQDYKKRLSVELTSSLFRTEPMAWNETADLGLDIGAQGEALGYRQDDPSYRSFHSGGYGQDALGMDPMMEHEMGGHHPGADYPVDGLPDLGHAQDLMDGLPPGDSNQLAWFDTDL

With αE-catenin (from UniProt P26231), the dissociation constant Kd in test [1] was 1 nM.

B1: Dr β-catenin (natural protein, Danio rerio (zebrafish), UniProt F1QGH7 1-780, looked up)
chain: MATQSDLMELEMAMDPDRKAAVSHWQQQSYLDSGIHSGATTTAPSLSGKGNPEDDDVDNQVLYEWEQGFNQSFNQEQVADIDGQYAMTRAQRVRAAMFPETLDEGMQIPSTQFDSAHPTNVQRLAEPSQMLKHAVVNLINYQDDAELATRAIPELTKLLNDEDQVVVNKAAVMVHQLSKKEASRHAIMRSPQMVSAIVRTMQNTNDVETARCTSGTLHNLSHHREGLLAIFKSGGIPALVKMLGSPVDSVLFYAITTLHNLLLHQEGAKMAVRLAGGLQKMVALLNKTNVKFLAITTDCLQILAYGNQESKLIILASGGPQALVNIMRTYTYEKLLWTTSRVLKVLSVCSSNKPAIVEAGGMQALGLHLTDPSQRLVQNCLWTLRNLSDAATKQEGMEGLLGTLVQLLGSDDINVVTCAAGILSNLTCNNYKNKMMVCQVGGIEALVRTVLRAGDREDITEPAICALRHLTSRHQDAEMAQNAVRLHYGLPVVVKLLHPPSHWPLIKATVGLIRNLALCPANHAPLREQGAIPRLVQLLVRAHQDTQRRTSMGGTQQQFVEGVRMEEIVEGCTGALHILARDIHNRIVIRGLNTIPLFVQLLYSPIENIQRVAAGVLCELAQDKEAAEAIEAEGATAPLTELLHSRNEGVATYAAAVLFRMSEDKPQDYKKRLSVELTSSLFRTEPMTWNETGDLGLDIGAQGEPLGYRQDDPSYRSFHSGGYGQDAMGMDPMMEHEMAGHHPGPDYPVDGLPDLGHTQDLIDGLPPGDSNQLAWFDTDL
As for B1, the binding result in the test with Dr αE-catenin is given as “binds”.
